Test [1] deals with T1, C-terminally truncated Mycobacterium smegmatis MmpL3 (ΔC Ms-MmpL3, aa 1–773) (M. smegmatis), A0QP27.
T1 chain: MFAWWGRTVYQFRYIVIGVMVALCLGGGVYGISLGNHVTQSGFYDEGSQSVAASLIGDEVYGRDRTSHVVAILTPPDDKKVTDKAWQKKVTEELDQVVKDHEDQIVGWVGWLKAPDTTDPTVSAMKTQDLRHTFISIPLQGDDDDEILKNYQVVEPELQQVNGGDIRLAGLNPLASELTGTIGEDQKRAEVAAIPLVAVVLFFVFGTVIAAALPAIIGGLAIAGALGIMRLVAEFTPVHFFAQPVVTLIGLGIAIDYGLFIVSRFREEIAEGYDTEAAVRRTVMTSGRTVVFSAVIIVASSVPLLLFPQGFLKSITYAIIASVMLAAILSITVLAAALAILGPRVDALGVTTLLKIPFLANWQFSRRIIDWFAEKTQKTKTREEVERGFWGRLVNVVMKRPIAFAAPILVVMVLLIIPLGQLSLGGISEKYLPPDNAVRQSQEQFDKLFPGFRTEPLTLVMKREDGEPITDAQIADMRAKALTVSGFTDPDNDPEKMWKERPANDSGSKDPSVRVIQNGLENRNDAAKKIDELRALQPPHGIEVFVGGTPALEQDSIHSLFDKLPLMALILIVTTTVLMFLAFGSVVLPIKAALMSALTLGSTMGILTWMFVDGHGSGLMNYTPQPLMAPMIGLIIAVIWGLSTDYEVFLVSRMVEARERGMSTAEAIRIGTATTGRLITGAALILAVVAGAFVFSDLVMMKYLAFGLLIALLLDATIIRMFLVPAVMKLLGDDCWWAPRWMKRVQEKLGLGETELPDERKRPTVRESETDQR
Briefly: native MS; LILBID-MS of the high sucrose percentage (HSP, 16-18% sucrose) fraction of POPC/MSP1E3D1 nanodiscs; 20 mM Tris HCl pH 8.0; negative mode; low and high laser energies. To be noted: remark: other sources report otherwise.

The target of test [2] is T1, C-terminally truncated Mycobacterium …. Briefly: AUC; sedimentation velocity of the SEC peaks of protein in SMALPs; 0.1-0.5 mg/mL, 20 mM Tris HCl, 150 mM NaCl, pH 8.0, 20 °C; c(s) distribution; the mass includes lipid and polymer. The note with it: remark: other sources report otherwise.

B1: C-terminally truncated Mycobacterium smegmatis MmpL3 (ΔC Ms-MmpL3, aa 1–773), A0QP27 1-773 (domain or fragment)
chain: T1 chain
For B1, the stoichiometry N in test [1] and in test [2] was 2 in each case.

By stoichiometry N is commonly meant the number of molecules, sites or subunits per partner or assembly.

The values above are taken from PMC11352979, “The mycobacterium lipid transporter MmpL3 is dimeric in detergent solution, SMALPs and reconstituted nanodiscs†” (RSC Chemical Biology, 2024).
